Data as given in US20240117062A1 (Sanofi, published 2024).
Residue numbers refer to the chain shown, from its start.

Experiments:
[1] = biological target: T1, BCMA protein on MM1R cells (UniProt Q02223 1-184, limits assumed); assay: flow cytometry on MM1R cells
T1 construct: whole, on cells; also called BCMA proteins on MM1R cell membrane surfaces
T1 sequence (looked up): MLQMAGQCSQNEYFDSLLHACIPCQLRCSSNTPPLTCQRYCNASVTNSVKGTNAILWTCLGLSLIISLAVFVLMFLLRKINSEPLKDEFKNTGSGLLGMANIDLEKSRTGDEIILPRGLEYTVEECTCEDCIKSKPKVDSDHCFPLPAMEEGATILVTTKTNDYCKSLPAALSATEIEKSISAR
Method: HEK 293 cells or MM1R cells (0.5×10⁶) were aliquoted into separate FACS tubes and were labelled as unstained, test sample or positive control. Hybridoma sup (20 μL) or purified CA10 or positive control (1 μg/mL, 5 μL) were added to the cells and incubated on ice for 30 minutes. […] The supernatant was poured off and the cells were gently vortexed to mix. 50 μL of 1:500 dilution of FITC conjugated goat anti-human (or mouse) H+L specific secondary antibody was added to the cells, and the cells were incubated on ice or at 4° C. for 30 minutes in the dark. […] The supernatant was discarded, and the cells were resuspended in 150-200 μL of FACS buffer. The cells were acquired on a BD FACS Canto and data analyzed using Flojo V10. Software.

[2] = biological target: T2, Human BCMA-Avi-His (human, UniProt Q02223 2-54); assay: SPR (Biacore T100), antibody captured on Protein A chip, antigen as analyte
T2 construct: SPR analyte; also called human BCMA Avi-His protein
T2 sequence (looked up): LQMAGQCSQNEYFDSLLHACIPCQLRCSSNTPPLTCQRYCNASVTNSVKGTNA
Method: (§1) 1×HBS-EP+ was prepared in MilliQ water, filtered, and degassed. A BIACORE™ T100 was primed with 1×HBS-EP+. The immobilized chip […] BIACORE™ control software was used.
(§2) The antibodies were diluted to 20 μg/mL in HBS-EP+. Seven 1:1 serial dilutions of the antigens were prepared (80 nM final concentration), and 1×HBS-EP+ was used as a 0 nm control. 1×HBS-EP+ was used for start-up injections and HCl (12 mM) was used for regeneration. The samples were run, and the data were analyzed using the BIACORE™ T100 software.

[3] = biological target: T3, Cyno BCMA-Avi-His (cynomolgus, UniProt A0A2K5UD97 2-53); assay: as above
T3 construct: SPR analyte; also called cynomolgus BCMA Avi-His protein
Method: as §1, §2

[4] = biological target: T4, Cyno BCMA DTA-His (cynomolgus); assay: as above
T4 construct: SPR analyte, Mw 28,203 Da; also called Cyno DTA His; cynomolgus BCMA DTA-His protein
Method: as §1, §2

[5] = biological target: T5, cynomolgus BCMA protein (ELISA antigen) (cynomolgus, UniProt A0A2K5UD97 1-53); assay: ELISA on coated BCMA antigen
T5 construct: also called Cyno BCMA; BCMA antigen
T5 sequence (A0A2K5UD97 entry or part of it): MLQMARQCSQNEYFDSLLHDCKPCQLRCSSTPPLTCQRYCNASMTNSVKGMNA
Method: A solution of BCMA antigen (2 μg/mL or 1 mg/mL biotinylated BCMA antigen when Streptavidin coated plate is used) was prepared in phosphate buffered saline (PBS). The antigen solution was added to 96-well plates (50 μL per well) and was incubated at 4° C. overnight. The plates were blocked with 250 μL per well of PBSA (PBS containing 1% BSA) for 2 hr at 37° C., then washed with 200 μL per well of phosphate buffered saline (PBS) three times. Hybridoma sup (50 μL) or 1 mg/mL of purified test or control (positive and negative) antibody (50 μL) were added per well in the 96-well plate and were incubated for 1 hour at room temperature. The plates were washed with 200 μl per well of PBS, three times, then horse radish peroxidase (HRP) conjugated secondary antibody diluted at 1:5,000 in PBSA (50 μl per well) was added and incubated for 1 hour at room temperature. Then, the plates were washed with 200 μl per well of PBS, three times. The tetramethylbenzidine dihydrochloride (TMB) substrate was prepared by mixing with both Solution A and Solution B (1:1) in a 15 mL conical tube, then 50 μL of the substrate was added to the wells. The color was allowed to develop for 1-5 minutes, then 50 μL of the stop solution was added to each well. The absorbance was read using a SpectraMax (Molecular Devices) at 450 nm.

T3 sequence (A0A2K5UD97 entry or part of it): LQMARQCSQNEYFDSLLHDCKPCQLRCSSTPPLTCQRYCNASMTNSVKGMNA
T4 sequence (P00588 32-225, tags or fused parts left off): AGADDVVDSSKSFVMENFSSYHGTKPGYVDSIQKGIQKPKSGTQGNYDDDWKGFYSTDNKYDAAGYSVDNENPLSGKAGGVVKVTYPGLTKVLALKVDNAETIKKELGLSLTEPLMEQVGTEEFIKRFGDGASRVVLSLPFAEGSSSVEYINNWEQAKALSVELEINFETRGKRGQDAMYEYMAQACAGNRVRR

B1: CA10_parental (antibody, V domains shown)
VH: QVQLVESGGGVVQPGRSLRLSCAASGFTFSNFGMHWVRQAPGRGLEWVAVIWSDETNRYYADSVKGRFTVSRDNVKSTVYLQMNSLISEDTAVYYCARDQQYCSSDSCFTWFDPWGQGTLVTVSS
VL: QVVVTQESALTTSPGETVTLTCRSSTGTVTPSNYANWVQEKPDHFFTGLIGDNNSRPPGVPARFSASLIGDKAALTITGAQTEDEAMYFCALWFGNQWVFGGGTKVTVL
notes: tested as a mAb purified on mAbSelect SuRe; also called CA10_V2_parental; CA10 WT
[1]
  binding result: binds
[2]
  binding result: binds
[3]
  binding result: binds

B2: CA10 Variant 2 (antibody, V domains shown)
VH: B1 VH
VL: QTVVTQEPSLTVSPGGTVTLTCASSTGTVTPSNYANWVQQKPGQAPRGLIGDNNSRPPGTPARFSASLLGGKAALTLSGVQPEDEAEYYCALWFGNQWVFGGGTKLTVL
[1]
  binding result: binds
[2]
  binding result: binds
[3]
  binding result: binds

B3: CA10 Variant 1 (antibody, V domains shown)
VH: B1 VH
VL: B2 VL with A23R, G43D, Q44H, A45F, P46F, R47T, T60V, L69I, G71D
[1]
  binding result: binds
[2]
  binding result: binds
[3]
  binding result: binds

B4: CA10 Variant 3 (antibody, V domains shown)
VH: B1 VH
VL: B2 VL with T28A, S55I, R56K, G59W, A66G, F94Y, N96G
[1]
  binding result: binds
[2]
  binding result: binds
[3]
  binding result: binds

B5: CA10 Variant 4 (antibody, V domains shown)
VH: B1 VH
VL: B2 VL with T28A, S32G, N33Y, S55N, R56K, G59W, A66G, W93Y, F94Y, N96G
[1]
  binding result: binds

B6: CA10 Variant 6 (antibody, V domains shown)
VH: B1 VH
VL: B2 VL with A45F
[1]
  binding result: binds
[2]
  binding result: binds
[3]
  binding result: binds

B7: CA10 Variant 5 (CA10_PE_V5) (antibody, V domains shown)
VH: B1 VH
VL: QTVVTQEPSLTVSPGGTVTLTCASSTGAVTSGYYANWVQQKPGQAPRALIGDNNIKPSWTPARFSGSLLGGKAALTLSGVQPEDEAEYYCALYYGGQWVFGGGTKLTVL
[3]
  binding result: no binding (tested: antigen up to 80 nM)
[4]
  binding result: no binding (tested: antigen up to 80 nM)
[5]
  binding result: no binding
